Consider one molecule from patent publication US20260201020A1, “METHODS FOR EXPRESSION OF FUSION-FREE BOVINE ULTRALONG CDR3 SCAFFOLD” (priority 2022, published 2026).

Where two headings read alike, the source gives them in different places.

In experiment [1] the target is SARS-CoV-2 Spike RBD (SARS-CoV-2), P0DTC2.
For experiment [2] the target is unchanged. This is another data set of the same source.
For experiment [3] the target is unchanged. This is another data set of the same source.
For experiment [4] the target is unchanged. The source holds these as a separate data set.
For experiment [5] the target is unchanged. The source holds these as a separate data set.
Experiment [6] shares this target. The source holds these as a separate data set.
Experiment [7] shares this target. The source holds these as a separate data set.

B1: R2G3-His (peptide)
chain: GGGGAMGSEGDKTCPDGYEHTCGCIGGCGCKRSACIGALCCQASLGGWLSDGETYTGGGGSGGGGSHHHHHH
modifications: not checked
For B1, the Adjusted Binding Rate was found to be 34 nm/s in experiment [1]; 2.12 nm/s in experiment [2]; 22 nm/s in experiment [3]; 6.42 nm/s in experiment [4]; 7.3 nm/s in experiment [5]; 3.4 nm/s in experiment [6]. The same molecule had an Adjusted Binding Rate in experiment [7] of 7.24 nm/s.
